Source: paper PMC3753651

What was measured:
[1] = target: GFP-Polη (UniProt Q9Y253); test: co-IP
[2] = target: GFP-mRev1 (not stated (label mRev1)) (UniProt Q920Q2); test: co-IP

PCNA-Ub:PCNA precipitation ratio [1]: 3.5
PCNA-Ub:PCNA precipitation ratio [2]: 8.5
Substance: PCNA-Ub (C-terminal fusion of ubiquitin to PCNA-K164R) (from UniProt P12004 1-261; P0CG48 1-76)
